± gives the uncertainty stated by the source.
Assay: self-splicing fitness, log relative to wild type (ln ratio); higher = more splicing; Tetrahymena group I intron in knt gene, E. coli kanamycin selection, DiMSum; sequences stand for … in CUCUCU…GGAGGGAAAAGUUAUCAGGCAUGCACCUGGUAGCUAGUCUUUAAACCAAUAGAUUGCAUCGGUUUAAAAGGCAAGACCGUCAAAUUGCGGGAAAGGGGUCAACAGCCGUUCAGUACCAAGUCUCAGGGGAAACUUUGAGAUGGCCUUGCAAAGGGUAUGGUAAUAAGCUGACGGACAUGGUCCUAACCACGCAGCCAAGUCCUAAGUCAACAGAUCUUCUGUUGAUAUGGAUGCAGUUCACAGACUAAAUGUCGGUCGGGGAAGAUGUAUUCUUCUCAUAAGAUAUAGUCGGACCUCUCCUUAAUGGGAGCUAGCGGAUGAAGUGAUGCAACACUGGAGCCGCUGGGAACUAAUUUGUAUGCGAAAGUAUAUUGAUUAGUUUUGGAGUACUCGUGGUCG
Method in brief: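 A randomised library covering all eight P1ex-region intron nucleotides was built with the intron in the knt kanamycin-resistance gene on pET-22b(+) and held in E. coli BL21(DE3). Cells were grown overnight at 37°C or 30°C on LB agar, with or without 25 μg/mL kanamycin, plus 100 μg/mL carbenicillin, 50 μM IPTG and 0.2% rhamnose, and pooled colonies were amplicon-sequenced on an Illumina HiSeq 2500. DiMSum fitness is the error-weighted combination of wild-type-normalised replicate fold changes, kanamycin versus none.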

Sequence	self-splicing fitness (ln) (37 °C)	self-splicing fitness (ln) (30 °C)
UAUUAGCAAUAUUACGGGGU	-1.52 ± 0.38	–
UAUUAGCAAUAUUACGUAAA	-1.09 ± 0.38	-2.63 ± 0.25
UAUUAGCAAUAUUACGUCCU	-0.635 ± 0.21	-1.69 ± 0.2
UAUUAGCAAUAUUACGUUGC	-2.59 ± 0.25	-3.57 ± 0.31
UAUUAGCAAUAUUACGUUGU	-3.04 ± 0.4	-3.93 ± 0.34
UCAAAGCAAUAUUACGAGAA	-1.48 ± 0.25	-3.28 ± 0.34
UCAAAGCAAUAUUACGAGCG	-0.172 ± 0.11	-0.712 ± 0.088
UCAAAGCAAUAUUACGAGUC	-2.26 ± 0.22	-3.79 ± 0.21
UCAAAGCAAUAUUACGCAAC	–	-4.31 ± 0.42
UCAAAGCAAUAUUACGCGAU	-1.64 ± 0.23	–
UCAAAGCAAUAUUACGCGCA	-0.207 ± 0.077	-0.442 ± 0.066
UCAAAGCAAUAUUACGCGCG	0.256 ± 0.097	-0.683 ± 0.082
UCAAAGCAAUAUUACGCGGG	-2.14 ± 0.16	-3.64 ± 0.19
UCAAAGCAAUAUUACGCUAG	-1.29 ± 0.1	-1.25 ± 0.076
UCAAAGCAAUAUUACGGAGU	-1.69 ± 0.14	-3.11 ± 0.13
UCAAAGCAAUAUUACGGCAU	-2.75 ± 0.14	-2.94 ± 0.14
UCAAAGCAAUAUUACGGCCU	-1.28 ± 0.17	–
UCAAAGCAAUAUUACGGCGA	-0.462 ± 0.068	-0.708 ± 0.074
UCAAAGCAAUAUUACGGGGU	-3.33 ± 0.26	-3.42 ± 0.17
UCAAAGCAAUAUUACGGGUA	0.505 ± 0.093	-0.981 ± 0.096

Sequence	self-splicing fitness (ln) (37 °C)	self-splicing fitness (ln) (30 °C)
UCAAAGCAAUAUUACGUAAU	-3.66 ± 0.21	-4.1 ± 0.21
UCAAAGCAAUAUUACGUGGC	-2.45 ± 0.32	-3.62 ± 0.32
UCAAAGCAAUAUUACGUGUA	-0.388 ± 0.066	-1.78 ± 0.07
UCAAAGCAAUAUUACGUUUA	-2.51 ± 0.18	-2.71 ± 0.16
UCACAGCAAUAUUACGAAAC	-2.7 ± 0.25	-3.36 ± 0.37
UCACAGCAAUAUUACGAAGG	-0.755 ± 0.12	-1.55 ± 0.097
UCACAGCAAUAUUACGACUC	-1.44 ± 0.13	-3.43 ± 0.12
UCACAGCAAUAUUACGAGGA	-1.65 ± 0.13	-1.73 ± 0.13
UCACAGCAAUAUUACGAGUG	-0.607 ± 0.09	-2.04 ± 0.09
UCACAGCAAUAUUACGAUCU	-1.78 ± 0.11	-2.71 ± 0.1
UCACAGCAAUAUUACGCAAG	-1.11 ± 0.15	-2.65 ± 0.17
UCACAGCAAUAUUACGCACA	-0.743 ± 0.12	-0.445 ± 0.088
UCACAGCAAUAUUACGCAGG	-1.52 ± 0.11	-3.13 ± 0.13
UCACAGCAAUAUUACGCAGU	-2.17 ± 0.16	-4.13 ± 0.21
UCACAGCAAUAUUACGCAUA	-1.68 ± 0.093	-2.02 ± 0.097
UCACAGCAAUAUUACGCAUG	-1.58 ± 0.098	-2.04 ± 0.098
UCACAGCAAUAUUACGCUUC	-3.28 ± 0.43	-4.3 ± 0.43
UCACAGCAAUAUUACGGACG	-0.222 ± 0.091	-1.22 ± 0.073
UCACAGCAAUAUUACGGACU	-2.16 ± 0.14	-2.99 ± 0.15

From the supplement of paper PMC7877785
